# In patent publication US12466859B2, “Desmoglein 2 (DSG2) binding proteins and uses therefor” (UNIVERSITY OF WASHINGTON THROUGH ITS CENTER FOR …, priority 2013, dated 2025):
# Entries after “also recorded” stand apart in the source; their conditions may differ.
# How the values were obtained:
# [1] = Serum clearance of JO-1 and JO-4 by ELISA; assay type: in vivo, hDSG2 transgenic mice; details: 2 mg/kg i.v.; mice with TC1-hDSG2 tumors
# Method: (§1) FIG. 11A-11C. Pharmacokinetics, toxicity, and immunogenicity of JO-4. FIG. 11A) Serum clearance of JO-1 and JO-4. hDSG2 transgenic mice with subcutaneous TC1-hDSG2 tumors (˜600 mm^3) were intravenously injected with JO-1 or JO-4 (2 mg/kg) and serum samples were analyzed for by ELISA. N=3. Note that the y-axis has a log scale. FIG. 11B1) Lymphocyte and FIG. 11B2) platelet counts in hDSG2/TC1-hDSG2 transgenic mice after JO-1 or JO-4 injection. N=3. FIG. 11C) Therapy studies in immunocompetent hDSG2 transgenic mice with TC1-hDSG2 tumors. When tumors reached a volume of ˜80 mm^3, JO-1 or JO-4 (2 mg/kg) or PBS was injected intravenously followed one hour later by PLD/Doxil (i.v. 1.5 mg/kg). Treatment was repeated as indicated by arrows. Tumors were then allowed to re-grow for about two weeks. From day 15 on serum anti-JO-1/J)—4 antibodies were detectable by ELISA. Two more treatment cycles were performed at day 28 and day 35. […] The difference between JO-1/PLD vs JO-4/PLD is significant from day 31 on. N=10.
# Two of the affinity enhanced version of JO-1, Y293D and V250F were analyzed in in vivo assay. We called these mutants JO-2 and JO-4, respectively. The first study was performed in a xenograft model derived from A549 cells similar to the study described for FIG. 5B. […] We also analyzed hematological parameters after i.v. JO-1 and JO-4 injection.
# [2] = Blood chemistry and blood cell counts after i.v. injection; assay type: in vivo, hDSG2 transgenic mice; details: for Blood chemistry / Lymphocyte and platelet number after injection: after i.v. injection, 2 mg/kg
# Method: as §1
# Two of the affinity enhanced version of JO-1, Y293D and V250F were analyzed in in vivo assay. We called these mutants JO-2 and JO-4, respectively. The first study was performed in a xenograft model derived from A549 cells similar to the study described for FIG. 5B. […] Additional studies were performed in xenograft tumors derived from ovc316 cells (30, 32). Ovc316 cells are Her2/neu positive epithelial tumor cells derived from an ovarian cancer biopsy. These cells can undergo EMT and the reverse process, mesenchymal-to-epithelial-transition (MET), under specific conditions in vitro and in vivo. A subfraction of ovc316 cells that is positive for Nanog, CD133, and E-cadherin is enriched for cancer stem cells, i.e. self-renewing cells with pluripotent potential and tumor forming ability (30). Ovc316 cells therefore closely model the heterogeneity and plasticity seen in tumors in situ. […] Finally, we tested JO-4 in a model for triple-negative breast cancer (TNBC). TNBC is characterized by a lack or minimal expression of estrogen receptor (ER), progesterone receptor (PR) and the absence of Her2/neu overexpression. TNBC accounts for 15% of all breast cancers. Overall survival is poor compared with that in patients who have other phenotypes. A characteristic feature of TNBC is high levels of DSG2 and epithelial junctions. Promising clinical results in the treatment of TNBS have been achieved with nanoparticle, albumin-conjugated paclitaxel (nab-paclitaxel/Abraxane™) alone or in combination with the EGFR-targeting mAb cetuximab/Erbitux™ (38). […] Because of its therapeutic relevance, we further studied JO-4 in an adequate mouse tumor model. […] These mice were subcutaneously implanted with syngeneic TC1-hDSG tumors. When tumors reached a volume of ˜600 mm^3, JO-1 or JO-4 was intravenously injected for safety and efficacy studies. […] After one hour post-injection JO-1 and JO-4 concentration reached a plateau with −100 ng/ml. We also analyzed hematological parameters after i.v. JO-1 and JO-4 injection.
# A549 xenograft tumors = experiment: Enhancement of irinotecan therapy in A549 xenograft tumors; assay type: in vivo, CB17-SCID/beige mice; details: 2 mg/kg i.v. one hour before irinotecan 37.5 mg/kg i.v.; tumor volume
# Method: FIG. 5A-5B. Correlation of reduced DSG2 binding with the ability to open epithelial junctions. FIG. 5A) Transepithelial electrical resistance (TEER) measured on polarized colon cancer T84 cells. Cells were cultured in transwell chambers until the TEER was constant, i.e. tight junctions had formed. A total of 5 μg of dimeric Ad3 fiber knobs in PBS was then added for 1 hour to the apical chamber. TEER was measured at the indicated time points. N=6. For time points 1.5 and 4 hours the difference between JO-1 vs D261N and N186D was significant (p<0.01). The arrows indicate the addition and removal of Ad3 fiber knobs. FIG. 5B) Enhancement of irinotecan therapy. A total of 4×10^6 A549 cells were injected subcutaneously into CB17-SCID/beige mice. Once the tumor reached a volume of ˜100 mm^3 (day 15 after implantation), the mice were injected intravenously with 2 mg/kg JO-1, E299V, N186D, or PBS, followed by an intravenous injection of irinotecan (37.5 mg/kg) one hour later. The treatment was repeated on day 25. N=5. […] The difference between “irinotecan” vs “JO-1+irinotecan” was significant (p<0.01) from day 20 on.
# FIG. 10A-10C. Combination of affinity-enhanced JO-1 versions with chemotherapy. FIG. 10A) Enhancement of irinotecan (I) therapy. The experimental setting was the same as in FIG. 5B. […] N=5. […] Mammary fat pad tumors were established from primary ovarian cancer ovc316 cells. Treatment was started when tumors reached a volume of 100 mm^3. Mice were injected intravenously with 2 mg/kg JO-1 or with 0.5 mg/kg JO-4, followed by an intravenous injection of PEGylated liposomal doxorubicin (PLD) (1 mg/kg) one hour later. Treatment was repeated weekly. […] A total of 4×10^6 TNBC MDA-MB-231 cells were injected into the mammary fat pad of CB17 SCID-beige mice. JO-4 (2 mg/kg) was intravenously injected 1 hour before the application of cetuximab (C) (10 mg/kg, i.p.) and nab-paclitaxel (nab-P) (5 mg/kg, i.v.). Treatment was given weekly. N=10 P<0.01 at day 25 for nab-P+C vs JO-4+nab-P+C.
# A549, MDA-MB-231, and ovc316 xenograft tumors were established by injection of the corresponding tumor cells into the mammary fat pad (1:1 with Matrigel) of CB17 mice. TC1-DSG2 tumors were established by subcutaneous injection of TC1-DSG2 cells into DSG2 transgenic mice. JO-0, JO-1, JO-2, or JO-4 were intravenously injected one hour before the application of chemotherapeutic drugs: Irinotecan/Camptosar™ (Pfizer Inc., Groton, CT), PEGylated liposomal doxorubicin/Lipodox™ (Sun Pharmaceuticals IN, India), cetuximab/Erbitux™ (ImClone, Somerville, NJ), nanoparticle albumin conjugated paclitaxel/Abraxane” (Abraxis Biosciences, Summit, NJ). Tumor volumes were measured three times a week. Each treatment group consisted of a minimum of 5 mice.
Molecule,Decline of serum concentration within an hour after injection [1],Blood chemistry [2],Lymphocyte and platelet number after injection [2],Enhancement of irinotecan therapy (A549 xenograft tumors),"Lymphocyte and platelet counts at nadir compared with JO-1 ([2]; 24 hours p.i., p<0.01)",Return of lymphocyte and platelet counts to normal levels ([2]; compared with JO-1 treated animals)
"JO-1: dimeric protein that contains the wild-type Ad3 fiber knob and a self-dimerization domain (SEQ ID NO:27) (protein, listed as Homo sapiens, dimer) MKVSALKEKVSALKEKVSALKEKVSALKEKVSALKEGSGGGSGGGSGGGSNSIALKNNTLWTGPKPEANCIIEYGKQNPDSKLTLILVKNGGIVNGYVTLMGASDYVNTLFKNKNVSINVELYFDATGHILPDSSSLKTDLELKYKQTADFSARGFMPSTTAYPFVLPNAGTHNENYIFGQCYYKASDGALFPLEVTVMLNKRLPDSRTSYVMTFLWSLNAGLAPETTQATLITSPFTFSYIREDD",declined more than one order of magnitude,did not show abnormal changes,decreased early after injection,enhanced irinotecan therapy; also recorded: significant,–,–
JO-4 (protein) MKVSALKEKVSALKEKVSALKEKVSALKEKVSALKEGSGGGSGGGSGGGSNSIALKNNTLWTGPKPEANCIIEYGKQNPDSKLTLILVKNGGIVNGYVTLMGASDYVNTLFKNKNVSINVELYFDATGHILPDSSSLKTDLELKYKQTADFSARGFMPSTTAYPFVLPNAGTHNENFIFGQCYYKASDGALFPLEVTVMLNKRLPDSRTSYVMTFLWSLNAGLAPETTQATLITSPFTFSYIREDD,declined more than one order of magnitude; also recorded: significantly greater; also recorded: rapidly decrease,did not show abnormal changes,decreased early after injection; also recorded: transient reduction,significantly more than JO-1; also recorded: significantly more efficient than JO-2,significantly lower numbers,faster
